Measured values taken from patent publication US20210079087A1 (REMD BIOTHERAPEUTICS, published 2021).

How the values were obtained:
human IL-17A [1] = target: T1, human IL-17A (human, UniProt Q16552 24-155); assay: cell-based or functional assay
human IL-17A [2] = target: T1, human IL-17A; assay: IL-17A/IL-17R blocking ELISA
cyno primate IL-17A = target: T2, cyno primate IL-17A (cyno primate, UniProt A0A2K5TTB0 24-155); assay: ELISA, binding to cyno IL-17A
T2 construct: Antigen of the primate crossreactivity ELISA; construct not described; also called Cy IL-17

human IL-17A [3] = target: T1, human IL-17A; assay: ELISA, binding to human IL-17A
murine IL-17A = target: T3, murine IL-17A (murine, UniProt Q62386 26-158, limits assumed); assay: murine IL-17A crossreactivity ELISA
T3 construct: Antigen of the murine IL-17A crossreactivity ELISA; construct not described; also called mouse IL-17A
T3 sequence (looked up): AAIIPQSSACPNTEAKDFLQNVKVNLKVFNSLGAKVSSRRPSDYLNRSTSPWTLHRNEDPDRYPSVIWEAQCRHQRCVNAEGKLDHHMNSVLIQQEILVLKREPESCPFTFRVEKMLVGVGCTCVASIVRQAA

human IL-17A [4] = target: T1, human IL-17A; assay: cell-based or functional assay; remark: listed apart in the source
human IL-17A [5] = target: T1, human IL-17A; assay: SPR, Biacore 8k; antibody amine-coupled to the chip, IL-17A as analyte
Procedure: (§1) The recombinant IgGs secreted to the medium and were purified using protein A affinity chromatography. […] Antibodies were immobilized on the sensor chip through amine coupling method. […] The data of dissociation (kd) and association (ka) rate constants were obtained using Biacore 8k evaluation software. The equilibrium dissociation constants (KD) were calculated from the ratio of kd over ka.

human IL-17A [6] = target: T1, human IL-17A; assay: SPR, Biacore T200; antibody amine-coupled to the chip, IL-17A as analyte
Procedure: The data of dissociation (kd) and association (kₐ) rate constants were obtained using Biacore T200 evaluation software. The equilibrium dissociation constants (KD) were calculated from the ratio of kd over kₐ.

human IL-17A [7] = target: T1, human IL-17A; assay: SPR, Biacore 8k; antibody amine-coupled to the chip, IL-17A as analyte (second, unlabelled row)
Procedure: as §1

human IL-17A [8] = target: T1, human IL-17A; assay: SPR, Biacore 8k; antibody amine-coupled to the chip, IL-17A as analyte; first of two Chimeric Ab rows (ka 1.94E+06)
Procedure: as §1

human IL-17A [9] = target: T1, human IL-17A; assay: SPR, Biacore 8k; antibody amine-coupled to the chip, IL-17A as analyte (second, unlabelled row); second, unlabelled row under Chimeric Ab
Procedure: as §1

T1 sequence (Q16552 24-155 limits assumed): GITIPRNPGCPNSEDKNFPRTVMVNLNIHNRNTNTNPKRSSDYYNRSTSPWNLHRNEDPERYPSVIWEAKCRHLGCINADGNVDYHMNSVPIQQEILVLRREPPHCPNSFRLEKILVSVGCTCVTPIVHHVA
T2 sequence (A0A2K5TTB0 entry or part of it): as the sequence (Q16552 24-155 limits assumed) above, with T3A, P8S, N34S, I77V, N78K, P104R counted along it

B1: 4H11C7 (antibody, mouse IgG1, V domains shown)
VH: QVTLKESGPGILQPSQTLSLTCSFSGFSLNTFGMGVDWIRQPSGKGLEWLAHIWWDDDKYYNPALESRLTISKDASKNQVFLKIANVDTADTATYYCSRRELGPYFFDYWGQGTTLTVSS
VL: GVLMTQTPLSLPVSLGDQASISCRSSQSIVHSNGNTYLEWYLQKPGQSPKLLIYKVSNRFSGVPDRFSGSGSGTDFTLKINRVEAEDLGVYYCFQGSHFPYTFGGGTKLEID
notes: amino acids 1-19 are stated as the leader; also called A1
- IC50 (nM), IL6 production by TNFα-primed NIH3T3 cells stimulated with human IL-17A (human IL-17A [1]): 0.953 nM
- IC50 (human IL-17A [2]): 2.44 nM
- EC50 (cyno primate IL-17A): 0.016 nM
- EC50 (human IL-17A [3]): 0.19 nM
- binding result (murine IL-17A): no binding

B2: 8A5G4 (antibody, V domains shown)
VH: QVELKESGPGLVAPSQSLSITCTVSGFSLTSYGVYWVRQPPGKGLEWLVVIWSDGTTTYNSALKSRLSISKDNSKSQVFLKMNSLQTDDTAMYYCARQGDNYSYAVDYWGQGTAVTVSS
VL: DVVMIQIPLSLPVSLGDQASISCRSSQSLVHSNGNTYLHWYLQKPGQSPKLLIYKVFNRFSGVPDRFSGSGSGTDFTLKISRVEAEDLGVYFCSQSTHAPLTFGAGTKLELK
notes: amino acids 1-19 are stated as the leader; also called A2
- IC50 (nM), IL6 production by TNFα-primed NIH3T3 cells stimulated with human IL-17A (human IL-17A [1]): 0.47 nM
- IC50 (human IL-17A [2]): 1.65 nM
- EC50 (cyno primate IL-17A): 0.008 nM
- EC50 (human IL-17A [3]): 0.1 nM
- binding result (murine IL-17A): no binding

B3: 22E2G4 (antibody, mouse IgG1, V domains shown)
VH: QVQLQQPGAELVMPGTSVRLSCKASGYTFTSYWMHWVKQRPGQGLEWIGEIDPSDTYTNYNPKFKGKATLTVDKSSSTAYMQFTSLTSEDSAVYYCARSGIYYDYYEDYWGQGTTLTVSS
VL: DVVMTQTPLSLPVSLGDQASISCRSSQILLHSNGNTYLHWYLQKPGQSPKLLIYKVSNRFSGVPDRFSGSGSGTDFTLKISRVEAEDLGVYFCSQSVHVPTFGGGTKLEIK
notes: amino acids 1-19 are stated as the leader; also called A3
- IC50 (nM), IL6 production by TNFα-primed NIH3T3 cells stimulated with human IL-17A (human IL-17A [1]): 0.534 nM
- IC50 (human IL-17A [2]): 3.04 nM
- EC50 (cyno primate IL-17A): 0.013 nM
- EC50 (human IL-17A [3]): 0.15 nM
- binding result (murine IL-17A): no binding

B4: 26G11B11 (antibody, mouse IgG1, V domains shown)
VH: QVQLQQPGAELVMPGASVKLSCKAAGYTFTSYWMHWVKQRPGQGLEWIGEIDPSDSYTNYNQKFKGKATLTVDKSSSTAYMQLSSLTSEDSAVYYCARSGIYYDYYEDYWGQGTTLTVSS
VL: DVVMTQTPLSLPVSLGDQASISCRSSQSLVHSNGNTYLHWYLQKPGQSPKLLIYKVSNRFSGVPDRFSGSGSGTDFTLKISRVEAEDLGVYFCSQSIHVPTFGGGTKLEIK
notes: amino acids 1-19 are stated as the leader; also called A6
- IC50 (nM), IL6 production by TNFα-primed NIH3T3 cells stimulated with human IL-17A (human IL-17A [1]): 0.544 nM
- IC50 (human IL-17A [2]): 2.19 nM
- EC50 (cyno primate IL-17A): 0.012 nM
- EC50 (human IL-17A [3]): 0.12 nM
- binding result (murine IL-17A): no binding

B5: 24F11E4 (antibody, mouse IgG1, V domains shown)
VH: QVQLQQPGAELVMPGASVRLSCKASGYTFTNYWIHWVKQRPGQGLEWIGEIDPSDTFTNYSPKFKGKATLTVDKSSSTAYMQLTGLTSEDSAVYFCARSGIYYDYYEDYWGQGTTLTVSS
VL: DVVMTQTPLSLPVSLGDQVSISCRSSQILLHSNGNTYLHWYLQKPGQSPKLLIYKVSNRFSGVPDRFSGSGSGTDFTLKISRVEADDLGVYFCSQSVHVPTFGGGTKLEIK
notes: amino acids 1-19 are stated as the leader; also called A5
- IC50 (nM), IL6 production by TNFα-primed NIH3T3 cells stimulated with human IL-17A (human IL-17A [1]): 0.138 nM
- IC50 (human IL-17A [2]): 2.15 nM
- EC50 (cyno primate IL-17A): 0.01 nM
- EC50 (human IL-17A [3]): 0.16 nM
- binding result (murine IL-17A): no binding

B6: 23A4D8 (antibody, mouse IgG2a, V domains shown)
VH: EVQLQQSGPELVKPGASVKISCKASGFTFTDYYMNWMKQSHGKSLEWIGDINPKNGGTIFNQNFRGKATLTVDKSSSTAYMELRSLTSEDSAVYYCARSILTGPFYFDYWGQGTTLTVSS
VL: DIVLTQSPASLAVSLGQRAIISCKASQSVSFAGTGLMHWYQQKSGQQPKLLISRASNLEAGVPTRFSGSGSRTDFTLNIHPVEEDDAATYYCQQTMEYPTFGGGTKLEIK
notes: also called Murine 23A4D8; parental
- IC50 (nM), IL6 production by TNFα-primed NIH3T3 cells stimulated with human IL-17A (human IL-17A [1]): 0.581 nM
- IC50 (nM), NIH3T3 in vitro functional assay described in Example 1 (IL-6 production) (human IL-17A [4]): 0.703 nM
- IC50 (human IL-17A [2]): 2.07 nM
- EC50 (cyno primate IL-17A): 0.004 nM
- EC50 (human IL-17A [3]): 0.08 nM
- binding result (murine IL-17A): no binding
- Kd (human IL-17A [5]): 4.89 pM
- koff (human IL-17A [5]): 1.22e-05 s⁻¹
- kon (human IL-17A [5]): 2.5e+06 M⁻¹ s⁻¹

B7: chimeric IgG4 (murine-human chimeric antibody derived from murine antibody A4 and human IgG4) (antibody, V domains shown)
VH: EVQLQQSGPELVKPGASVKISCKASGFTFTDYYMNWMKQSHGKSLEWIGDINPKNGGTIFNQNFRGKATLTVDKSSSTAYMELRSLTSEDSAVYYCARSILTGPFYFDYWGQGTTLTVSS
VL: DIVLTQSPASLAVSLGQRAIISCKASQSVSFAGTGLMHWYQQKSGQQPKLLISRASNLEAGVPTRFSGSGSRTDFTLNIHPVEEDDAATYYCQQTMEYPTFGGGTKLEIKR
notes: also called Chimeric Ab
- Kd (human IL-17A [5]): 5.15 pM
- kon (human IL-17A [5]): 1.94e+06 M⁻¹ s⁻¹
- Kd (human IL-17A [6]): ≤ 4.93 pM
- koff (human IL-17A [6]): ≤ 1e-05 s⁻¹
- kon (human IL-17A [6]): 2.03e+06 M⁻¹ s⁻¹
- Kd (human IL-17A [7]): 4.39 pM
- koff (human IL-17A [7]): 1e-05 s⁻¹
- koff (human IL-17A [8]): ≤ 1e-05 s⁻¹
- kon (human IL-17A [9]): 2.28e+06 M⁻¹ s⁻¹

B8: REMD 155.1 (antibody, human IgG4 S228P, kappa, V domains shown)
VH: QVQLVQSGAEVKKPGASVKVSCKASGFTFTDYYMNWVRQAPGQGLEWMGDINPKNGGTIFNQNFRGRVTMTRDTSISTAYMELSRLRSDDTAVYYCARSILTGPFYFDYWGQGTLVTVSS
VL: DIVMTQSPDSLAVSLGERATINCKASQSVSFAGTGLMHWYQQKPGQQPKLLIYRASNLEAGVPDRFSGSGSGTDFTLTISSLQAEDVAVYYCQQTMEYPTFGGGTKLEIKR
notes: Humanized antibody derived from 23A4D8; also called IgG 2 (H1/L2); H1 + L2
- IC50 (nM), NIH3T3 in vitro functional assay described in Example 1 (IL-6 production) (human IL-17A [4]): 0.995 nM
- Kd (human IL-17A [5]): ≤ 3.61 pM
- koff (human IL-17A [5]): ≤ 1e-05 s⁻¹
- kon (human IL-17A [5]): 2.77e+06 M⁻¹ s⁻¹

B9: REMD 155 (antibody, human IgG4 S228P, kappa, V domains shown)
VH: QVQLVQSGAEVKKPGASVKVSCKASGFTFTDYYMNWVRQAPGQGLEWMGDINPKNGGTIFNQNFRGRVTMTRDTSISTAYMELSRLRSDDTAVYYCARSILTGPFYFDYWGQGTLVTVSS
VL: DIVMTQSPDSLAVSLGERATINCKASQSVSFAGTGLMHWYQQKPGQPPKLLIYRASNLEAGVPDRFSGSGSGTDFTLTISSLQAEDVAVYYCQQTMEYPTFGGGTKLEIKR
notes: Humanized antibody derived from 23A4D8; also called IgG 1 (H1/L1); H1 + L1
- IC50 (nM), NIH3T3 in vitro functional assay described in Example 1 (IL-6 production) (human IL-17A [4]): 0.88 nM
- Kd (human IL-17A [5]): 5.52 pM
- koff (human IL-17A [5]): 1.35e-05 s⁻¹
- kon (human IL-17A [5]): 2.45e+06 M⁻¹ s⁻¹

B10: REMD 155.2 (antibody, human IgG4 S228P, kappa, V domains shown)
VH: QVQLVQSGAEVKKPGASVKVSCKASGFTFTDYYMNWVRQAPGQGLEWMGDINPKNGGTIFNQNFRGRVTMTRDTSISTAYMELSRLRSDDTAVYYCARSILTGPFYFDYWGQGTLVTVSS
VL: DIVLTQSPDSLAVSLGERATINCKASQSVSFAGTGLMHWYQQKPGQQPKLLIYRASNLEAGVPDRFSGSGSGTDFTLTISSVQAEDVAVYYCQQTMEYPTFGGGTKLEIKR
notes: Humanized antibody derived from 23A4D8; also called IgG 4 (H1/L4); H1 + L4
- IC50 (nM), NIH3T3 in vitro functional assay described in Example 1 (IL-6 production) (human IL-17A [4]): 0.975 nM
- Kd (human IL-17A [5]): ≤ 3.46 pM
- koff (human IL-17A [5]): ≤ 1e-05 s⁻¹
- kon (human IL-17A [5]): 2.89e+06 M⁻¹ s⁻¹
